# Experimental data from the Immune Epitope Database (IEDB).
# Legend:
# HLA-B*08:01 = assay: IEDB peptide-MHC binding, purified MHC/competitive/radioactivity; filed as Kd, often an IC50 or EC50 that approximates it; ≥ and ≤ were set here for values at or beyond the usual limits of such assays
# HLA-A*32:01 = assay: as above
# HLA-A*33:01 = assay: as above; settings: source organism: Dengue virus 4 Philippines/H241/1956
# HLA-A*31:01 = assay: as above; settings: source organism: Dengue virus 4 Philippines/H241/1956
# HLA-A*26:01 = assay: as above
# HLA-A*01:01 = assay: as above
# HLA-A*30:02 = assay: as above
# HLA-A*29:02 = assay: as above
# HLA-A*23:01 = assay: as above
# HLA-A*24:02 = assay: as above
# HLA-A*02:01 [1] = assay: IEDB peptide-MHC binding, purified MHC/competitive/fluorescence; ≥ and ≤ were set here for values at or beyond the usual limits of such assays
# HLA-A*69:01 = assay: IEDB peptide-MHC binding, purified MHC/direct/fluorescence; filed as Kd, often an IC50 or EC50 that approximates it; ≥ and ≤ were set here for values at or beyond the usual limits of such assays
# HLA-A*02:01 [2] = assay: as above
# [3] = source organism: Dengue virus 4 Philippines/H241/1956
# [4] = source organism: Vaccinia virus WR
# [5] = source organism: SARS coronavirus Tor2
# [6] = source organism: Mammarenavirus machupoense
# [7] = source organism: Zaire ebolavirus
# [8] = source organism: Dengue virus 3 Martinique/1243/1999
# [9] = source organism: Mammarenavirus brazilense
# [10] = source organism: Dengue virus 2 Jamaica/1409/1983
# [11] = source organism: Lassa virus Josiah
# [12] = source organism: Camelpox virus M-96
# [13] = source organism: Influenza A virus (A/Wilson-Smith/1933(H1N1))
# [14] = source organism: Rickettsia conorii
sequence,measurement,setting,value
LKKNKAIKIL,Kd,HLA-B*08:01; [3],11000 nM
KTIFLSEPY,Kd,HLA-A*32:01; [4],2.9 nM
MFGGVSWMVR,Kd,HLA-A*33:01,4.59 nM
same,Kd,HLA-A*32:01; [3],952 nM
same,Kd,HLA-A*31:01,17.2 nM
TTTIKPVSY,Kd,HLA-A*26:01; [5],360 nM
same,Kd,HLA-A*01:01; [5],286 nM
same,Kd,HLA-A*30:02; [5],142 nM
same,Kd,HLA-A*29:02; [5],47.3 nM
same,Kd,HLA-A*23:01; [5],≥ 77800 nM
same,Kd,HLA-A*24:02; [5],≥ 77600 nM
HKQWFLDLPL,Kd,HLA-B*08:01; source organism: Dengue virus 1 Brazil/97-11/1997,57 nM
CIVNKFMSF,Kd,HLA-B*08:01; [4],60.4 nM
LCEEGKVCY,Kd,HLA-A*26:01; [6],≥ 77900 nM
same,Kd,HLA-A*01:01; [6],7830 nM
same,Kd,HLA-A*30:02; [6],14200 nM
same,Kd,HLA-A*29:02; [6],≥ 45400 nM
same,Kd,HLA-A*23:01; [6],≥ 31600 nM
same,Kd,HLA-A*24:02; [6],≥ 77500 nM
ASKVFFGPI,Kd,HLA-B*08:01; [4],12800 nM
EQMAPHHKIL,Kd,HLA-B*08:01; [3],59.7 nM
LDISEATQV,IC50,HLA-A*02:01 [1]; [7],≥ 72600 nM
ITQFETYQL,Kd,HLA-A*32:01; [8],1630 nM
TGPCAGDFA,IC50,HLA-A*02:01 [1]; [7],≥ 112000 nM
TERSASGGVY,Kd,HLA-A*26:01; [9],≥ 54600 nM
same,Kd,HLA-A*01:01; [9],1710 nM
same,Kd,HLA-A*30:02; [9],1010 nM
same,Kd,HLA-A*29:02; [9],≥ 55500 nM
same,Kd,HLA-A*23:01; [9],≥ 44900 nM
same,Kd,HLA-A*24:02; [9],≥ 70300 nM
SVYKHRLIV,Kd,HLA-B*08:01; [4],108 nM
RILFRKPSL,Kd,HLA-B*08:01; [4],32.2 nM
SLNLRIKIL,Kd,HLA-B*08:01; [4],92 nM
IFWRNTNPI,Kd,HLA-A*26:01; [5],≥ 77900 nM
same,Kd,HLA-A*01:01; [5],≥ 78100 nM
same,Kd,HLA-A*30:02; [5],≥ 78900 nM
same,Kd,HLA-A*29:02; [5],≥ 35200 nM
same,Kd,HLA-A*23:01; [5],9150 nM
same,Kd,HLA-A*24:02; [5],≥ 31500 nM
RVRFFFPSL,IC50,HLA-A*02:01 [1]; source organism: Homo sapiens,≥ 200000 nM
ETRTETWMSS,Kd,HLA-A*26:01; [10],693 nM
same,Kd,HLA-A*32:01; [10],12800 nM
YCNYSKYWYL,Kd,HLA-A*26:01; [11],≥ 69700 nM
same,Kd,HLA-A*01:01; [11],9730 nM
same,Kd,HLA-A*30:02; [11],≥ 22700 nM
same,Kd,HLA-A*29:02; [11],10800 nM
same,Kd,HLA-A*23:01; [11],1150 nM
same,Kd,HLA-A*24:02; [11],4440 nM
NCSSISIKL,IC50,HLA-A*02:01 [1]; source organism: Vaccinia virus Copenhagen,≥ 437000 nM
GTFLCANEY,Kd,HLA-A*26:01; [5],262 nM
same,Kd,HLA-A*01:01; [5],97.4 nM
same,Kd,HLA-A*30:02; [5],0.406 nM
same,Kd,HLA-A*29:02; [5],3.83 nM
same,Kd,HLA-A*23:01; [5],≥ 36400 nM
same,Kd,HLA-A*24:02; [5],11400 nM
FTNAGIVAY,Kd,HLA-A*32:01; [4],149 nM
GTFKKSGAI,Kd,HLA-A*32:01; [8],4930 nM
TMFKIVYSL,Kd,HLA-A*32:01; [4],0.915 nM
VNPGTYVYF,IC50,HLA-A*02:01 [1]; source organism: Variola virus,≥ 186000 nM
ETPHLMGWDY,Kd,HLA-A*26:01; [5],4.91 nM
same,Kd,HLA-A*01:01; [5],301 nM
same,Kd,HLA-A*30:02; [5],696 nM
same,Kd,HLA-A*29:02; [5],92.7 nM
same,Kd,HLA-A*23:01; [5],≥ 70000 nM
same,Kd,HLA-A*24:02; [5],≥ 70300 nM
RGVNFAEGV,IC50,HLA-A*02:01 [1]; source organism: Sudan ebolavirus,32900 nM
PVSAMVRMY,Kd,HLA-A*26:01; [5],≥ 36700 nM
same,Kd,HLA-A*01:01; [5],11400 nM
same,Kd,HLA-A*30:02; [5],9130 nM
same,Kd,HLA-A*29:02; [5],2730 nM
same,Kd,HLA-A*23:01; [5],≥ 39200 nM
same,Kd,HLA-A*24:02; [5],≥ 40900 nM
KSTDFLDPA,IC50,HLA-A*02:01 [1]; [7],5050 nM
AIIAIVFVF,Kd,HLA-A*32:01; [4],14100 nM
EPIKHKYPL,Kd,HLA-B*08:01; [4],1.27 nM
DLYDYITRI,Kd,HLA-A*69:01; [12],35.3 nM
same,Kd,HLA-A*02:01 [2]; [12],101 nM
DQHGRMNYYW,Kd,HLA-A*26:01; [13],661 nM
same,Kd,HLA-A*01:01; [13],≥ 70400 nM
same,Kd,HLA-A*30:02; [13],≥ 69800 nM
same,Kd,HLA-A*29:02; [13],2170 nM
same,Kd,HLA-A*23:01; [13],1110 nM
same,Kd,HLA-A*24:02; [13],1470 nM
MLNYVDYNI,Kd,HLA-A*32:01; [4],1.59 nM
VYMPASWVM,Kd,HLA-A*26:01; [5],≥ 77900 nM
same,Kd,HLA-A*01:01; [5],≥ 78100 nM
same,Kd,HLA-A*30:02; [5],≥ 20900 nM
same,Kd,HLA-A*29:02; [5],14700 nM
same,Kd,HLA-A*23:01; [5],5420 nM
same,Kd,HLA-A*24:02; [5],12600 nM
LAKLTEAIT,IC50,HLA-A*02:01 [1]; [7],68400 nM
STFNRFTIV,Kd,HLA-B*08:01; [4],1730 nM
TVATSRTLSY,Kd,HLA-A*26:01; [5],77.9 nM
same,Kd,HLA-A*01:01; [5],341 nM
same,Kd,HLA-A*30:02; [5],822 nM
same,Kd,HLA-A*29:02; [5],100 nM
same,Kd,HLA-A*23:01; [5],≥ 70000 nM
same,Kd,HLA-A*24:02; [5],≥ 70300 nM
TAIAGAWENG,Kd,HLA-A*32:01; [8],≥ 60500 nM
DLAAGVDVV,Kd,HLA-A*69:01; [14],1460 nM
same,Kd,HLA-A*02:01 [2]; [14],3240 nM
VAEMDGIQY,Kd,HLA-A*26:01; [5],1270 nM
same,Kd,HLA-A*01:01; [5],30.8 nM
same,Kd,HLA-A*30:02; [5],19.5 nM
same,Kd,HLA-A*29:02; [5],58.3 nM
same,Kd,HLA-A*23:01; [5],≥ 77800 nM
same,Kd,HLA-A*24:02; [5],≥ 77600 nM
